In US20210388087A1 (Chugai, published 2021):

T1: Human CD3eg linker (human)
T1 construct: Single-chain construct; also called recombinant human CD3
T1 chain: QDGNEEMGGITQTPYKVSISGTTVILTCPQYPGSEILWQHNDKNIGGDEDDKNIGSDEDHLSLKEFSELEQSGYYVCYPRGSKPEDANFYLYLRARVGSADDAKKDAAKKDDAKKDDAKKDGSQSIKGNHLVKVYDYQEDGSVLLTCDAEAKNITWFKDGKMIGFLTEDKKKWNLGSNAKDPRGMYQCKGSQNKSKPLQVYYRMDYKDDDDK


Molecular target: T1, Human CD3eg linker
Test: SPR; fold vs parent H183/L072

Binder | fold change of affinity
H183/L072 VL Q27K (antibody, name in Kabat numbering, V domains shown) VH: QVQLVESGGGLVQPGRSLRLSCAASGFTFSNAWMHWVRQAPGKGLEWVAQIKDKGNAYAAYYAPSVKGRFTISRDDSKNSIYLQMNSLKTEDTAVYYCHYVHYASASTVLPAFGVDAWGQGTTVTVSS VL: DIVMTQSPLSLPVTPGEPASISCQASKELVHMNRNTYLHWYQQKPGQAPRLLIYKVSNRFPGVPDRFSGSGSGTDFTLKISRVEAEDVGVYYCAQGTSVPFTFGQGTKLEIK | 0.8 fold
H183/L072 VL Q27N (antibody, name in Kabat numbering, V domains shown) VH: QVQLVESGGGLVQPGRSLRLSCAASGFTFSNAWMHWVRQAPGKGLEWVAQIKDKGNAYAAYYAPSVKGRFTISRDDSKNSIYLQMNSLKTEDTAVYYCHYVHYASASTVLPAFGVDAWGQGTTVTVSS VL: DIVMTQSPLSLPVTPGEPASISCQASNELVHMNRNTYLHWYQQKPGQAPRLLIYKVSNRFPGVPDRFSGSGSGTDFTLKISRVEAEDVGVYYCAQGTSVPFTFGQGTKLEIK | 1 fold
H183/L072 VL Q27R (antibody, name in Kabat numbering, V domains shown) VH: QVQLVESGGGLVQPGRSLRLSCAASGFTFSNAWMHWVRQAPGKGLEWVAQIKDKGNAYAAYYAPSVKGRFTISRDDSKNSIYLQMNSLKTEDTAVYYCHYVHYASASTVLPAFGVDAWGQGTTVTVSS VL: DIVMTQSPLSLPVTPGEPASISCQASRELVHMNRNTYLHWYQQKPGQAPRLLIYKVSNRFPGVPDRFSGSGSGTDFTLKISRVEAEDVGVYYCAQGTSVPFTFGQGTKLEIK | 1 fold
H183/L072 VL Q27S (antibody, name in Kabat numbering, V domains shown) VH: QVQLVESGGGLVQPGRSLRLSCAASGFTFSNAWMHWVRQAPGKGLEWVAQIKDKGNAYAAYYAPSVKGRFTISRDDSKNSIYLQMNSLKTEDTAVYYCHYVHYASASTVLPAFGVDAWGQGTTVTVSS VL: DIVMTQSPLSLPVTPGEPASISCQASSELVHMNRNTYLHWYQQKPGQAPRLLIYKVSNRFPGVPDRFSGSGSGTDFTLKISRVEAEDVGVYYCAQGTSVPFTFGQGTKLEIK | 1.1 fold
H183/L072 VL Q27M (antibody, name in Kabat numbering, V domains shown) VH: QVQLVESGGGLVQPGRSLRLSCAASGFTFSNAWMHWVRQAPGKGLEWVAQIKDKGNAYAAYYAPSVKGRFTISRDDSKNSIYLQMNSLKTEDTAVYYCHYVHYASASTVLPAFGVDAWGQGTTVTVSS VL: DIVMTQSPLSLPVTPGEPASISCQASMELVHMNRNTYLHWYQQKPGQAPRLLIYKVSNRFPGVPDRFSGSGSGTDFTLKISRVEAEDVGVYYCAQGTSVPFTFGQGTKLEIK | 1.2 fold
H183/L072 VL Q27Y (antibody, name in Kabat numbering, V domains shown) VH: QVQLVESGGGLVQPGRSLRLSCAASGFTFSNAWMHWVRQAPGKGLEWVAQIKDKGNAYAAYYAPSVKGRFTISRDDSKNSIYLQMNSLKTEDTAVYYCHYVHYASASTVLPAFGVDAWGQGTTVTVSS VL: DIVMTQSPLSLPVTPGEPASISCQASYELVHMNRNTYLHWYQQKPGQAPRLLIYKVSNRFPGVPDRFSGSGSGTDFTLKISRVEAEDVGVYYCAQGTSVPFTFGQGTKLEIK | 0.9 fold
H183/L072 VL Q27L (antibody, name in Kabat numbering, V domains shown) VH: QVQLVESGGGLVQPGRSLRLSCAASGFTFSNAWMHWVRQAPGKGLEWVAQIKDKGNAYAAYYAPSVKGRFTISRDDSKNSIYLQMNSLKTEDTAVYYCHYVHYASASTVLPAFGVDAWGQGTTVTVSS VL: DIVMTQSPLSLPVTPGEPASISCQASLELVHMNRNTYLHWYQQKPGQAPRLLIYKVSNRFPGVPDRFSGSGSGTDFTLKISRVEAEDVGVYYCAQGTSVPFTFGQGTKLEIK | 1 fold
H183/L072 VL Q27W (antibody, name in Kabat numbering, V domains shown) VH: QVQLVESGGGLVQPGRSLRLSCAASGFTFSNAWMHWVRQAPGKGLEWVAQIKDKGNAYAAYYAPSVKGRFTISRDDSKNSIYLQMNSLKTEDTAVYYCHYVHYASASTVLPAFGVDAWGQGTTVTVSS VL: DIVMTQSPLSLPVTPGEPASISCQASWELVHMNRNTYLHWYQQKPGQAPRLLIYKVSNRFPGVPDRFSGSGSGTDFTLKISRVEAEDVGVYYCAQGTSVPFTFGQGTKLEIK | 0.7 fold
H183/L072 VL Q27V (antibody, name in Kabat numbering, V domains shown) VH: QVQLVESGGGLVQPGRSLRLSCAASGFTFSNAWMHWVRQAPGKGLEWVAQIKDKGNAYAAYYAPSVKGRFTISRDDSKNSIYLQMNSLKTEDTAVYYCHYVHYASASTVLPAFGVDAWGQGTTVTVSS VL: DIVMTQSPLSLPVTPGEPASISCQASVELVHMNRNTYLHWYQQKPGQAPRLLIYKVSNRFPGVPDRFSGSGSGTDFTLKISRVEAEDVGVYYCAQGTSVPFTFGQGTKLEIK | 0.9 fold
H183/L072 VL Q27T (antibody, name in Kabat numbering, V domains shown) VH: QVQLVESGGGLVQPGRSLRLSCAASGFTFSNAWMHWVRQAPGKGLEWVAQIKDKGNAYAAYYAPSVKGRFTISRDDSKNSIYLQMNSLKTEDTAVYYCHYVHYASASTVLPAFGVDAWGQGTTVTVSS VL: DIVMTQSPLSLPVTPGEPASISCQASTELVHMNRNTYLHWYQQKPGQAPRLLIYKVSNRFPGVPDRFSGSGSGTDFTLKISRVEAEDVGVYYCAQGTSVPFTFGQGTKLEIK | 1 fold

Second part, the binder after the results:

fold change of affinity | Binder
0.4 fold | H183/L072 VL Q90E (antibody, name in Kabat numbering, V domains shown) VH: QVQLVESGGGLVQPGRSLRLSCAASGFTFSNAWMHWVRQAPGKGLEWVAQIKDKGNAYAAYYAPSVKGRFTISRDDSKNSIYLQMNSLKTEDTAVYYCHYVHYASASTVLPAFGVDAWGQGTTVTVSS VL: DIVMTQSPLSLPVTPGEPASISCQASQELVHMNRNTYLHWYQQKPGQAPRLLIYKVSNRFPGVPDRFSGSGSGTDFTLKISRVEAEDVGVYYCAEGTSVPFTFGQGTKLEIK
0 fold | H183/L072 VL Q90D (antibody, name in Kabat numbering, V domains shown) VH: QVQLVESGGGLVQPGRSLRLSCAASGFTFSNAWMHWVRQAPGKGLEWVAQIKDKGNAYAAYYAPSVKGRFTISRDDSKNSIYLQMNSLKTEDTAVYYCHYVHYASASTVLPAFGVDAWGQGTTVTVSS VL: DIVMTQSPLSLPVTPGEPASISCQASQELVHMNRNTYLHWYQQKPGQAPRLLIYKVSNRFPGVPDRFSGSGSGTDFTLKISRVEAEDVGVYYCADGTSVPFTFGQGTKLEIK
0.1 fold | H183/L072 VL Q90H (antibody, name in Kabat numbering, V domains shown) VH: QVQLVESGGGLVQPGRSLRLSCAASGFTFSNAWMHWVRQAPGKGLEWVAQIKDKGNAYAAYYAPSVKGRFTISRDDSKNSIYLQMNSLKTEDTAVYYCHYVHYASASTVLPAFGVDAWGQGTTVTVSS VL: DIVMTQSPLSLPVTPGEPASISCQASQELVHMNRNTYLHWYQQKPGQAPRLLIYKVSNRFPGVPDRFSGSGSGTDFTLKISRVEAEDVGVYYCAHGTSVPFTFGQGTKLEIK
0 fold | H183/L072 VL Q90K (antibody, name in Kabat numbering, V domains shown) VH: QVQLVESGGGLVQPGRSLRLSCAASGFTFSNAWMHWVRQAPGKGLEWVAQIKDKGNAYAAYYAPSVKGRFTISRDDSKNSIYLQMNSLKTEDTAVYYCHYVHYASASTVLPAFGVDAWGQGTTVTVSS VL: DIVMTQSPLSLPVTPGEPASISCQASQELVHMNRNTYLHWYQQKPGQAPRLLIYKVSNRFPGVPDRFSGSGSGTDFTLKISRVEAEDVGVYYCAKGTSVPFTFGQGTKLEIK
0 fold | H183/L072 VL Q90S (antibody, name in Kabat numbering, V domains shown) VH: QVQLVESGGGLVQPGRSLRLSCAASGFTFSNAWMHWVRQAPGKGLEWVAQIKDKGNAYAAYYAPSVKGRFTISRDDSKNSIYLQMNSLKTEDTAVYYCHYVHYASASTVLPAFGVDAWGQGTTVTVSS VL: DIVMTQSPLSLPVTPGEPASISCQASQELVHMNRNTYLHWYQQKPGQAPRLLIYKVSNRFPGVPDRFSGSGSGTDFTLKISRVEAEDVGVYYCASGTSVPFTFGQGTKLEIK
